Data: paper doi:10.1101/2024.10.21.619555

Target: DR6 ECD-Halo (UniProt O75509)
Assay: single-molecule dual-color photobleaching

DR6 ECD-Halo, sequence (O75509 42-349): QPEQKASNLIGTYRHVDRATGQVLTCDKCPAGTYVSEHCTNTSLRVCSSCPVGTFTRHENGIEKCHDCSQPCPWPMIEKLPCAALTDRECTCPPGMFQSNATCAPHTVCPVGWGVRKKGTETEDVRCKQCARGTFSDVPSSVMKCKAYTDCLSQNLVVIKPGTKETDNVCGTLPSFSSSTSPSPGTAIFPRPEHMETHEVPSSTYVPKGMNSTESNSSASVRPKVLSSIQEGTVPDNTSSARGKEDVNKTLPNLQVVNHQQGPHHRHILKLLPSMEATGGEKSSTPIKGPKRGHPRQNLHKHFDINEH

- stoichiometry N: 1
Substance: RBP4-SNAP (from UniProt P02753 19-201) (ligand)
